Patent US20080085859A1, “Drug Promoting Ceramide Transport, Base Sequence for Producing the Drug, Method of Measuring Activity of Promoting Ceramide Release and Method of Measuring Activity of Promoting Intermembrane Ceramide Transfer” (JAPAN SCIENCE AND TECHNOLOGY AGENCY, priority 2003, published 2008)

Tests used:
LY-A2 cell [1] = assay: sensibility to MCD and lysenin (MTT); format: cell-based, Chinese hamster
Description: 100 thousand pieces of cells per each well of a 12-well culture dish were inoculated in 1 mL of F12/NBS culture medium and cultured at 33° C. overnight. After Cells existed on the culture dish was washed twice in 1 mL of serum-free F12 medium, 1 mL of 10 mM MCD/F12 or lysenin (25 ng/mL)/F12 was added. It should be noted that culture medium in which 1 mL of only serum-free F12 has been added was made control. After it has been incubated at 37° C. for one hour, it was washed twice in 1 mL of phosphate buffered saline (PBS). Subsequently, 1 mL of MTT (0.5 mg/mL)/F12 was added and incubated at 37° C. for one hour. The relative amount of the generated reduced form of MTT was measured by a method of reference literature written by Hanada et al (J. Biol. Chem. 273, 33787-33794, 1998).
The relevant gene was expressed in LY-A2 cell by making virus particle derived from retrovirus vector infect it prepared in the foregoing paragraph. Specifically, the relevant gene was expressed in LY-A2 cell by making virus particle derived from pLIB/hCERT. In the case where hCERT was expressed, the purified transformed strain was also separated by a ultradilution method, and this strain was named as LY-A2/hCERT. After it has been cultured for days, the sensitivity to MCD and lysenin was examined by the above-described method. […]

[2] = activity for promoting ceramide intermembrane transfer (donating/receiving membrane, castor seed lectin); format: biochemical
Source text: Subsequently, as described in detail below, whether or not hCERT protein and recombinant protein promotes the transfer between ceramide lipid membrane was considered, the purified hCERT protein and its recombinant protein were used in this assay were used. The present method was constructed on the basis of the principle of method of measuring the activity for promoting the intermembrane transfer of phosphatidylinositol by phosphatidylinositol transfer protein already reported by Kasper et al (Biochim. Biophys. Acta 664, 22-32, 1981) so that it becomes a new method of measuring the activity for promoting the ceramide intermembrane transfer. For the purpose of measuring the activity for promoting the intermembrane transfer, a donating membrane in which radioactive ceramide has been contained and a receiving membrane not containing ceramide were prepared. For the purpose of separating the lipid membrane, lactocylceramide was contained in the donating membrane. After the donating membrane and receiving membrane have been incubated with the protein sample to be targeted, castor seed lectin was added. Ceramide intermembrane-transferred can be quantified by measuring the radioactive activity of receptor membrane which has not been precipitated by a low speed centrifugation. […]

LY-A2 cell [3] = assay: metabolism labeling of lipid using [14C] serine and [14C] choline; format: cell-based, Chinese hamster; details: LY-A2/hCERT cell
Description: CHO-K1 cell, LY-A2 cell, and LY-A2/hCERT cell were inoculated at the cell density of 1.0×10^6 per culture dish having the 60-mm diameter, and cultured at 33° C. overnight. Subsequently, it was exchanged with […] of Nutridoma medium, after [^14C] serine (0.75 μCi) or [^14C] choline (1.0 μCi) have been added, in the case where [^14C] serine is added, it was cultured for 2 hours, and in the case where [^14C] choline is added, it was cultured at 33° C. for 5 hours. However, in the case where the influence on (1R, 3R) HPA-12 is analyzed, after it was pretreated at […] for 15 minutes in 1.5 mL of Nutridoma medium to which 1 μM of (1R,3R) HPA-12 has been added (in control experiment, dimethylsulfoxide used for dissolving a drug was added at the concentration corresponding to 0.01% of the final concentration), [^14C] serine was added, and cultured at 33° C. for 2 hours. After the cell was washed twice in 2 mL of cooled PBS, dissolved in 900 μL of sodium dodecyl sulfate (SDS), then, 800 μL and 20 μL of dissolved matter were used for determining lipid extraction and protein concentration. For the purpose of analyzing lipid labeled with [^14C] serine, the lipid was separated by TLC by making acetic methyl/n-propanol/chloroform/methanol/0.25% KCl (25:25:25 10:9, volume ratio) development solvent. The radioactive lipid separated on the plate was detected and analyzed by an image analyzer.

B1: hCERT protein: human CERT protein having an amino acid sequence of SEQ ID NO:1 (protein)
chain: MSDNQSWNSSGSEEDPETESGPPVERCGVLSKWTNYIHGWQDRWVVLKNNALSYYKSEDETEYGCRGSICLSKAVITPHDFDECRFDISVNDSVWYLRAQDPDHRQQWIDAIEQHKTESGYGSESSLRRHGSMVSLVSGASGYSATSTSSFKKGHSLREKLAEMETFRDILCRQVDTLQKYFDACADAVSKDELQRDKVVEDDEDDFPTTRSDGDFLHSTNGNKEKLFPHVTPKGINGIDFKGEAITFKATTAGILATLSHCIELMVKREDSWQKRLDKETEKKRRTEEAYKNAMTELKKKSHFGGPDYEEGPNSLINEEEFFDAVEAALDRQDKIEEQSQSEKVRLHWPTSLPSGDAFSSVGTHRFVQKVEEMVQNHMTYSLQDVGGDANWQLVVEEGEMKVYRREVEENGIVLDPLKATHAVKGVTGHEVCNYFWNVDVRNDWETTIENFHVVETLADNAIIIYQTHKRVWPASQRDVLYLSVIRKIPALTENDPETWIVCNFSVDHDSAPLNNRCVRAKINVAMICQTLVSPPEGNQEISRDNILCKITYVANVNPGGWAPASVLRAVAKREYPKFLKRFTSYVQEKTAGKPILF
modifications: HeLa cell
LY-A2 cell [1]; LY-A2 infected with virus particle derived from pLIB/hCERT, FIG. 2
  MCD resistance and lysenin sensitivity: significantly acquired MCD resistance and lysenin sensitivity
LY-A2 cell [1]; purified LY-A2/hCERT cell, FIG. 3(A)
  sensitivity to MCD and lysenin: approximately the same level as the sensitivity seen in the wild type CHO-K1 cell
[2]; 37° C., 14C of supernatant and donating membrane, FIGS. 17, 18
  activity for promoting ceramide intermembrane transfer: detected depending on the amount of hCERT, the length of incubation time and incubation temperature
[2]; for 10 minutes
  ceramide transferred to the receiving membrane vesicle: ~50%
LY-A2 cell [3]; radioactive choline, FIG. 4(B)
  PC synthesizing rate: at the wild type level
  SM biosynthesizing rate: recovered to the wild type level
LY-A2 cell [3]; radioactive serine, FIG. 4(A)
  SM biosynthesis speed: recovered to the wild type level
